Among the data in patent publication US20220331363A1 are EC50 values, retold here.

The target in this assay is human Burkitt's lymphoma cell Daudi. Put plainly: flow cytometry (FACS) on Daudi cells, which Example 3 says do not express BCMA. For orientation: In flow cytometry, cells or beads pass a laser one at a time.

The term EC50 denotes the midpoint of the concentration-response curve.

As to “murine anti-BCMA antibody C11D5.3 (scFv), reference antibody”, the EC50 worked out at 58.2 µg/mL.
